Measured values from US20230138315A1 (JIANGSU HENGRUI MEDICINE, published 2023).

Columns and labels:
Test in all cases: ELISA; biotin-labelled antigen on streptavidin-coated plate
rat ANGPTL3(17-455)-His = target: T1, rat ANGPTL3(17-455)-His (rat, biotin-labelled in the ELISA and HTRF assays (sites not given))
T1 construct: also called full-length rat ANGPTL3
T1 chain: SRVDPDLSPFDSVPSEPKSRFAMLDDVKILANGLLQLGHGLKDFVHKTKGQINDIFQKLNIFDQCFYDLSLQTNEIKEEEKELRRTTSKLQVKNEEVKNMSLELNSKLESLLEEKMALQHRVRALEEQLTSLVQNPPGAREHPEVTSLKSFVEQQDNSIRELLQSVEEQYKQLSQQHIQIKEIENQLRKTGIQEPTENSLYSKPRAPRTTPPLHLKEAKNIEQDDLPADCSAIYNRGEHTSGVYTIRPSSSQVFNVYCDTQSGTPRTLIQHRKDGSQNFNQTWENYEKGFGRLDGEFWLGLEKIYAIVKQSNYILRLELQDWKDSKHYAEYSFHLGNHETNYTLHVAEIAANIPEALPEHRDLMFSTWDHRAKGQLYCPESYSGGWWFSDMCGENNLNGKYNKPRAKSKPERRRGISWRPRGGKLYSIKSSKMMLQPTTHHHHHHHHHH
Protocol: (§1) An anti-ANGPTL3 antibody inhibited or interfered with at least one activity of an ANGPTL3 protein by binding to the ANGPTL3 protein. The binding activity of the anti-ANGPTL3 antibody to the ANGPTL3 antigen was tested by an ELISA assay. The ANGPTL3 protein (human ANGPTL3(17-170)-mFc) was immobilized on a 96-well microplate by binding to the goat anti-mouse IgG coated on the microplate, and the binding activity of the antibody to the ANGPTL3 was determined according to the intensity of the signal after the antibody was added.
(§2) Streptavidin (Sigma, S4762-5MG) was diluted to a concentration of 3 μg/mL with PBS buffer (Shanghai BasalMedia, B320, pH 7.4), added to a 96-well microplate (Corning, CLS3590-100EA) at 50 μL/well, and then incubated in an incubator at 37° C. for 3 h or incubated at 4° C. overnight (16-18 h). After the liquid was discarded, a PBS-diluted 5% skim milk (BD, 232100) blocking solution was added at 250 μL/well, and the mixture was incubated in an incubator at 37° C. for 3 h or incubated at 4° C. overnight (16-18 h) for blocking. […] The mixture was incubated in an incubator at 37° C. for 2 h. After the incubation was finished, the reaction solution in the microplate was discarded. The plate was washed 3 times with PBST, and then a test antibody that was diluted with a sample diluent to different concentrations was added at […]. The mixture was incubated in an incubator at 37° C. for 2 h.

[1] = target: T2, cynomolgus monkey ANGPTL3(17-460)-His (cynomolgus monkey, UniProt Q9Y5C1 17-460 (human entry), biotin-labelled in the ELISA and HTRF assays (sites not given))
T2 construct: also called full-length cynomolgus monkey ANGPTL3; Cyno ANGPTL3
T2 chain: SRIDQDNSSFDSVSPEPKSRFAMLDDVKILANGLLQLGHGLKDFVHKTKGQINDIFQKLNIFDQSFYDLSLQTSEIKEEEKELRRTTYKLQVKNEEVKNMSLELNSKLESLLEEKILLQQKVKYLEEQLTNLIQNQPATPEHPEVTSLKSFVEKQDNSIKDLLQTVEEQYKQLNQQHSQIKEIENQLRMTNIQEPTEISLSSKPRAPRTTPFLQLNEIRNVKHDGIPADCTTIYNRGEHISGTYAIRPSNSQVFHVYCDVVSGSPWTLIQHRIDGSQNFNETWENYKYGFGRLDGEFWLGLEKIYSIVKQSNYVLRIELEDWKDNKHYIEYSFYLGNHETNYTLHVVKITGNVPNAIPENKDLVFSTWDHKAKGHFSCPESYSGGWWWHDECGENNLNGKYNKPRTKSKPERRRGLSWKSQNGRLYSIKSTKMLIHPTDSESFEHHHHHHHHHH
Protocol: as §1, §2

[2] = target: T3, mouse ANGPTL3(17-455)-His (mouse, UniProt Q9R182 17-455, biotin-labelled in the ELISA and HTRF assays (sites not given))
T3 construct: also called full-length mouse ANGPTL3
T3 sequence: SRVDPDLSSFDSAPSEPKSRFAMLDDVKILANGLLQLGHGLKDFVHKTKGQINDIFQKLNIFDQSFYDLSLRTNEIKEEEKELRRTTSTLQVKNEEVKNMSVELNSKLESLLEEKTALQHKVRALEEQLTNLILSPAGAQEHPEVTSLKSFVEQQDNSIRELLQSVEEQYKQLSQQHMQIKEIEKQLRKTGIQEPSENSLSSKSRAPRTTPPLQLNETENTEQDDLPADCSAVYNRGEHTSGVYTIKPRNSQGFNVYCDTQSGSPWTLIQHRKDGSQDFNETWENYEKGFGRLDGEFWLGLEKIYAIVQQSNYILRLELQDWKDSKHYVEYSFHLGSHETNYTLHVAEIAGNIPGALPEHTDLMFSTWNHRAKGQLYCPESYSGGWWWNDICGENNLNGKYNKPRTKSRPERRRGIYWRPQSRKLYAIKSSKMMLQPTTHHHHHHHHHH
Protocol: as §1, §2

Row | Binder | EC50 (rat ANGPTL3(17-455)-His) [nM] | EC50 [1] [nM] | EC50 [2] [nM]
1 | P3G (antibody, human IgG4 S228P, kappa, V domains shown, also called anti-ANGPTL3 antibody P3G; P3 (variable regions)) VH: QVQLVQSGAEVKKPGASVKVSCKSSGYTFTDYYLHWLRQAPGQGPEWMGWISPNSGGTSYAQKFQGRVTMTRDTSISTAYMELSSLRSDDTAVYYCARDIATLGNFFTYGMDVWGQGTTVTVSS VL: DIQLTQSPSSLSASVGDRVTITCRASQGIRNDLGWYQQKPGKAPKLLIYAASSLQSGVPSRFSGSGSGTDFTLTISSLQPEDFATYYCQQSYSSWTFGQGTKVEIKR | 1.44 | 4.55 | 1.63
2 | P8G (antibody, human IgG4 S228P, kappa, V domains shown, also called anti-ANGPTL3 antibody P8G; P8 (variable regions)) VH: QVQLVQSGAEVKKPGASVKVSCKASGYTFTSYDINWVRQAPGQGLEWVGLINPRDDSTSYAQKFQGRVTMTRDTSTSTMYMELSSLRSEDTAVYFCARDLGSIREVLYYGMDVWGQGTTVTVSS VL: not shown | 2.12 | 2.53 | 1.73
3 | P8BG (antibody, human IgG4 S228P, kappa, V domains shown, also called anti-ANGPTL3 antibody P8BG; P8B (variable regions)) VH: QVQLVQSGAEVKKPGASVKVSCKASGYTFTSYDINWVRQAPGQGLEWVGLINPREDSTSYAQKFQGRVTMTRDTSTSTMYMELSSLRSEDTAVYFCARDLGSIREVLYYGMDVWGQGTTVTVSS VL: not shown | 0.528 | 0.2 | 0.105
